Laboratory results taken from PMC2660348.

Columns and labels:
[1] = target: T1, Zur (FurB) (Mycobacterium smegmatis) (UniProt A0R0S1); assay: EMSA
T1 sequence: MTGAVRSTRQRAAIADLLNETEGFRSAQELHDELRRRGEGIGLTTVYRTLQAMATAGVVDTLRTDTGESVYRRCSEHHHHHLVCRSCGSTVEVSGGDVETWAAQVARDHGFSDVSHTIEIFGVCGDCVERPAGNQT

[2] = target: T2, IdeR (Mycobacterium smegmatis) (UniProt A0QVZ3); assay: EMSA
T2 sequence: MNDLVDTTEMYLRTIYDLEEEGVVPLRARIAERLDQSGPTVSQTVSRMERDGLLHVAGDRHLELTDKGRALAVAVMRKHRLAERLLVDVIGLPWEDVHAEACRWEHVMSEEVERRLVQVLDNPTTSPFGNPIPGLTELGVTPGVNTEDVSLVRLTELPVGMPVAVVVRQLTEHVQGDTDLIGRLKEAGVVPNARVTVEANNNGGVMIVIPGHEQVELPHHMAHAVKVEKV

For “CGGGATCCCGCAACACCCTGGTCAGTGCCGCCCGCGTCTGACGGCGCACCGTTCGCGCTGCCGGCACCCCGGGCTCCATAATGAAAATCATGTTCAGTAAGCTACACTCTGCATATCGGGCTACCAACGAAATGGAGTATCGGTCATGATCTTGCCAGCCGTGCCTAAAAGCTTGGCCGCAGGGCCGAGTCGATTGGTCGCGGTCGCCTCGACAGTTAGCTTATGCAATGCTAACTTCGGGGCAAAGTTCAGGCGGATCGGCCGATGGCGGGCGTAGGTGAAGGAGACAGCGGGTACCCG (double strand) [rv0282 upstream region (pr1)]”, the binding [1] was “binds” and the binding [2] was “binds”.
